Laboratory results published in patent US20170015742A1 (published 2017).
Changes are numbered by the printed parent chain. Values belong to the binder of their own block, whether it stands above or below them.

Experiments:
Human VEGF-A 165 [1] = biological target: T1, Human VEGF-A 165 (human, UniProt P15692 207-395); experiment: SPR (Biacore), antibody captured by anti-human Fc, hVEGF165 as analyte
T1 construct: Recombinant human VEGF165; also called huVEGF-A165; hVEGF165
Method: For example, approximately 9000 RU of goat anti-human Fc specific polyclonal antibody (Thermo Fisher Scientific Inc., Rockford, Ill.) diluted in 10 mM sodium acetate (pH 4.5) is directly immobilized across a CM5 research grade biosensor chip using a standard amine coupling kit according to manufacturer's instructions and procedures at 25 μg/ml. Unreacted moieties on the biosensor surface were blocked with ethanolamine. For kinetic analysis, rate equations derived from the 1:1 Langmuir binding model were fitted simultaneously to multiple antigen injections (using global fit analysis) with the use of Scrubber 2 (BioLogic Software), Biacore Biaevaluation 4.0.1 software or Biacore T100 Evaluation software. Purified antibodies or DVD-Ig molecules were diluted in running buffer for capture across goat anti-human Fc reaction surfaces. Antibodies or DVD-Ig molecules to be captured as a ligand (1 μg/ml) were injected over reaction matrices at a flow rate of 10 μl/minute. During the assay, all measurements were referenced against the capture surface alone (i.e., with no captured antibody or DVD-Ig molecule). […] The equilibrium dissociation constant KD (M) of the reaction between antibodies and the target antigen was then calculated from the kinetic rate constants by the following formula: KD=Koff/Kₒₙ. Binding was recorded as a function of time and kinetic rate constants were calculated.
T1 sequence (P15692 other isoform, or with tags, fused parts or gaps): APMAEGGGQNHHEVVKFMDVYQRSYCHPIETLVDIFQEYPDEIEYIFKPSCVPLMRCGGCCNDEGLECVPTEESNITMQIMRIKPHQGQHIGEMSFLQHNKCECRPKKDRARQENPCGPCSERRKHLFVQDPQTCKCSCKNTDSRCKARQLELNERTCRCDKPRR

Human PDGF-BB [2] = biological target: T2, Human PDGF-BB (human, UniProt P01127 82-190); experiment: competition ELISA: antibody pre-incubated with hPDGF-BB-biotin, binding to coated hPDGF-Rβ-Fc
T2 construct: Dimer of two B chains; also called hPDGF-BB; huPDGF-BB
Method: Plates were then washed four times with wash buffer (TBS, 0.05% Tween-20) and blocked with Superblock blocking buffer (Thermo Scientific, cat#37535). During the blocking step, supernatants, antibodies, benchmark compounds or DVD-Ig were diluted in assay diluent (10% Superblock containing 0.05% surfactamps) and an eight point titration of each sample molecule was performed. […] Following incubation, plates were washed four times with wash buffer. Detection reagent Streptavidin-polyHRP-40 (Fitzgerald, cat#65r-s104phrp) was diluted in assay diluent and added to plates (50 μL) for 45 minutes at 25° C. with shaking. Plates were washed four times with wash buffer and developed with the addition of Enhanced K-blue TMB substrate (Neogen, cat#308177). The reaction was stopped with 2N sulfuric acid (VWR, cat# BDH3500-1) and the absorbance was read at 450 nm-570 nm. […] Data was analyzed using Softmax Pro 4.8 software and IC₅₀ values calculated using a sigmoidal dose response (variable slope) fit in GraphPad Prism 5.
Potency was evaluated in both cell-based and ELISA formats.

Human PDGF-BB [3] = biological target: T2, Human PDGF-BB; experiment: cell-based or functional assay
Target sequence in this assay (P01127 82-190 limits assumed): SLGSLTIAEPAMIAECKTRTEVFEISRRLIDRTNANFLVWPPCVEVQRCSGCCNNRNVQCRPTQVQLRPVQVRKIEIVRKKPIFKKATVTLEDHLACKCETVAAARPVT

[4] = biological target: T3, Cynomolgus monkey PDGF-BB (cynomolgus monkey, UniProt P01127 82-190 (human entry), limits assumed); experiment: cell-based or functional assay
T3 chain: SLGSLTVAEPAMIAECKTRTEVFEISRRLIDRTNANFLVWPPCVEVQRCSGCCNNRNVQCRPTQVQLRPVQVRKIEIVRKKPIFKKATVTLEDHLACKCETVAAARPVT

Human VEGF-A 165 [5] = biological target: Human VEGF-A 165 (human, UniProt P15692 207-395); experiment: cell-based or functional assay
Target sequence in this assay (P15692 other isoform, or with tags, fused parts or gaps limits assumed): as the sequence (P15692 other isoform, or with tags, fused parts or gaps) above

B2: CL-33699-IgG (antibody, V domains shown)
VH: EVTLRESGPALVKPTQTLTLTCTFSGFSLSTYGMGIGWIRQPPGKALEWLANIWWDDDKYYNPSLKNRLTISKDTSKNQVVLTMTNMDPVDTATYYCARIESMGPKYAFDYWGQGTMVTVSS
VL: EIVLTQSPGTLSLSPGERATLSCRASSGSIWYSFVSWYQQKPGQAPRLLIYADDQRASGIPDRFSGSGSGTDFTLTISRLEPEDFAVYYCQSYGINIDVVFGGGTKVEIK
IC50 (Human PDGF-BB [2]): 0.072 nM
hPDGF-BB NIH-3T3 Proliferation IC50 (Human PDGF-BB [3]): 0.033 nM
cynoPDGF-BB NIH-3T3 Proliferation IC50 [4]: 0.016 nM

B9: hBEW-9E10.3 (antibody, V domains shown)
VH: EVQLVQSGAEVKKPGSSVKVSCKASGYTFTNYGMYWVRQAPGQGLEWMGWIDTETGRPTYADDFKGRFTFTADKSTSTAYMELSSLRSEDTAVYYCARWSGDTTGIRGPWFAYWGQGTLVTVSS
VL: DIRMTQSPSSLSASVGDRVTIECLASEDIYSDLAWYQQKPGKSPKLLIYNANGLQNGVPSRFSGSGSGTDYSLTISSLQPEDVATYFCQQYNYFPGTFGQGTKLEIK
hVEGF165 IC50 (nM), HMVEC-d proliferation (Human VEGF-A 165 [5]): 0.062 nM

B10: hBEW-9E10.6 (antibody, V domains shown)
VH: B9 VH
VL: B9 VL with E22T, S72T
hVEGF165 IC50 (nM), HMVEC-d proliferation (Human VEGF-A 165 [5]): 0.068 nM

B11: hBEW-9E10.4 (antibody, V domains shown)
VH: EIQLVQSGSELKKPGASVKVSCKASGYTFTNYGMYWVKQAPGQGLEYMGWIDTETGRPTYADDFKGRFVFSLDTSVSTAYLQISSLKAEDTAVYFCARWSGDTTGIRGPWFAYWGQGTLVTVSS
VL: B9 VL with E22T, S72T
hVEGF165 IC50 (nM), HMVEC-d proliferation (Human VEGF-A 165 [5]): 0.071 nM

B13: chBED-4G10-C8 (antibody, human IgG1, kappa, L234A L235A, V domains shown)
VH: QVQLQQSGTELVKPGSSVKISCKASGYTFTSNYMHWIRQQPGNGLEWIGWIYPGDGDTNYNHNFNGKATLTADKSSSTAYMQLSSLTSEDFAVYFCASSTRAIPGWFTYWGQGTLVTVSS
VL: DTVLTQSPALAVSPGERVSISCWASESVSTLMHWYQQKLGQQPKLLIYGASNLESGVPARFRGSGSGTDFTLTIDPVEADDTATYFCQQSWSDPYTFGAGTKLELKR
Kd (Human VEGF-A 165 [1]): 0.59 nM
kon (Human VEGF-A 165 [1]): 1e+07 M⁻¹ s⁻¹

B15: chBEW-8E6 (antibody, human IgG1, kappa, L234A L235A, V domains shown)
VH: QIQLVQSGPELKKPGESVKISCKASGYTFTDYAMHWVKQAPGKVLKWMGWINTFTGKPTYIDDFKGRFVFSLEASASTANLQISDLKNEDTATYFCARGNYYSGYWYFDFWGPGTMVTMSS
VL: DIQMTQSPASLSASLGETISIECRASEDISSNLAWYQQKSGKSPQLLIFAANRLQDGVPSRFSGSGSGTQFSLKISGMQPEDEGDYFCLQGSKFYTFGAGTKLELKR
notes: also called chBEW-8E6-E4
Kd (Human VEGF-A 165 [1]): 0.016 nM
kon (Human VEGF-A 165 [1]): 6.2e+06 M⁻¹ s⁻¹

B16: chBEW-3A1 (antibody, human IgG1, kappa, L234A L235A, V domains shown)
VH: QVQLEQSGAELVKPGTSVKLSCMASGYTSSSNHMNWMKQTTGQGLEWIGIINPGSGGTRYNVKFEGKATLTVDKSSSTAFMQLNSLTPEDSAVYYCARAGFPGPFSYYAMGAWGQGTSVTVSS
VL: DIQMTQSPPVLSASVGDRVTLSCKASQNIHNNLDWYQQKHGEAPKLLIFYTNNLQTGIPSRFSGSGSGTDYTLTISSLQPEDVATYYCYQYNSGYTFGAGTKLELKR
notes: also called chBEW-3A1-D10-G9
Kd (Human VEGF-A 165 [1]): 0.023 nM
kon (Human VEGF-A 165 [1]): 3.5e+07 M⁻¹ s⁻¹

B17: chBEW-10H2 (antibody, human IgG1, kappa, L234A L235A, V domains shown)
VH: QIQLVQSGPELKKPGESVKISCKASGYSFTNFGLYWVKQAPGQGLQYMGWIDTETGKPTYADDFRGRFVFFLETSASTAYLQINNLKNEDMATYFCARVYGYPSWYFDFWGPGTMVTVSS
VL: DIQMTQSPASLSTSLEEIVTITCQASQDIDNYLSWYQQKPGKSPQLLIHSATSLADGVPSRFSGSRSGTQFSLKIHRLQVEDTGIYYCLQHFFPPWTFGGGTKLELKR
notes: also called chBEW-10H2-B9
Kd (Human VEGF-A 165 [1]): 0.013 nM
kon (Human VEGF-A 165 [1]): 2.8e+07 M⁻¹ s⁻¹

Other lines, results leading:

Kd (Human VEGF-A 165 [1]): 0.012 nM
kon (Human VEGF-A 165 [1]): 6.8e+06 M⁻¹ s⁻¹
B1: chBEW-5C3 (antibody, human IgG1, kappa, L234A L235A, V domains shown)
VH: QIQLVQSGPELKKPGESVKISCKASGYTFTNYGVYWVKQAPGQGLQYMGWINTETGKPTYADDFKGRFVFFLETSTNTAYLQINNLKNEDMATFFCARARQLDWFVYWGQGTLVTVSS
VL: DTVLTQSPALTVSPGERVSISCRARESLTTSLCWFQQKPGQQPKLLIYGASKLESGVPARFSGSGSGTDFTLTIDPVEADDTATYFCQQSWYDPPTFGGGTKLELKR
notes: also called chBEW-5C3-E7

IC50 (Human PDGF-BB [2]): 1.27 nM
hPDGF-BB NIH-3T3 Proliferation IC50 (Human PDGF-BB [3]): 0.293 nM
cynoPDGF-BB NIH-3T3 Proliferation IC50 [4]: 0.18 nM
B3: CL-33759-IgG (antibody, V domains shown)
VH: B2 VH with I36V, M103V, G104W, P105T, K106R, A108D
VL: EIVLTQSPGTLSLSPGERATLSCERSSGDIWQTYVSWYQQKPGQAPRLVIYGDDQRASGIPDRFSGSGSGTDFTLTISRLEPEDFAVYYCQSYDIDIDITFGGGTKVEIK

IC50 (Human PDGF-BB [2]): 0.409 nM
hPDGF-BB NIH-3T3 Proliferation IC50 (Human PDGF-BB [3]): 0.171 nM
cynoPDGF-BB NIH-3T3 Proliferation IC50 [4]: 0.073 nM
B4: CL-33845-IgG (antibody, V domains shown)
VH: B2 VH with I36V, E101V, M103D, G104W, P105T, K106T, A108S
VL: B2 VL

IC50 (Human PDGF-BB [2]): 0.092 nM
hPDGF-BB NIH-3T3 Proliferation IC50 (Human PDGF-BB [3]): 0.03 nM
cynoPDGF-BB NIH-3T3 Proliferation IC50 [4]: 0.024 nM
B5: CL-33737-IgG (antibody, V domains shown)
VH: B2 VH with I36V, Q41K, M103S, A108S
VL: B2 VL

IC50 (Human PDGF-BB [2]): 0.114 nM
hPDGF-BB NIH-3T3 Proliferation IC50 (Human PDGF-BB [3]): 0.09 nM
cynoPDGF-BB NIH-3T3 Proliferation IC50 [4]: 0.042 nM
B6: CL-33767-IgG (antibody, V domains shown)
VH: B2 VH with I36V, M103I, A108S
VL: B2 VL

Kd (Human VEGF-A 165 [1]): 0.011 nM
kon (Human VEGF-A 165 [1]): 1.1e+07 M⁻¹ s⁻¹
B7: chBEW-1B4 (antibody, human IgG1, kappa, L234A L235A, V domains shown)
VH: QIQLVQSGPELKKPGESVKISCKASGYSFTNYGMYWVKQAPGQGLQYMGWIDTETGKPTYTDDFKGRFVFFLETSASTAYLQINNLKNEDMATYFCARWSGDTAGIRGPWFAYWGQGTLVTVSS
VL: DIRMTQSPASLSASLGETVNIECLASEDIYSDLAWYQQKPGKSPQLLIYNANDLQKGVPSRFSGSGSGTQYSLKINSLQSEDVATYFCQQYNYYPGTFGAGTKLELKR
notes: also called chBEW-1B4-C4

Kd (Human VEGF-A 165 [1]): 0.0094 nM
kon (Human VEGF-A 165 [1]): 5.5e+06 M⁻¹ s⁻¹
B8: chBEW-1B10 (antibody, human IgG1, kappa, L234A L235A, V domains shown)
VH: EVQLVESGGGLVQPGRSLKLSCAASGFSFSKYDMAWFRQTPTKGLEWVASITTSGVGTYYRDSVKGRFTVSRDNAKSTLYLQMDSLRSEDTATYYCARGYGAMDAWGQGTSVTVSS
VL: DIQMTQSPASLSASLEEIVTITCKASQDIDDYLSWYQQKPGKSPQLVIYAATRLADGVPSRFSGSGSGTQYSLKISRLQVDDSGIYYCLQSSSTPWTFGGGTNLELKR
notes: also called chBEW-1B10-B9-C3

hVEGF165 IC50 (nM), HMVEC-d proliferation (Human VEGF-A 165 [5]): 0.229 nM
B12: hBEW-9E10.5 (antibody, V domains shown)
VH: B9 VH with V2I, R38K, W47Y, Y95F
VL: B9 VL with E22T, S72T

Kd (Human VEGF-A 165 [1]): 0.011 nM
kon (Human VEGF-A 165 [1]): 7.2e+06 M⁻¹ s⁻¹
B14: chBEW-1E3 (antibody, human IgG1, kappa, L234A L235A, V domains shown)
VH: QIQLVQSGPELKKPGESVKISCKASGYPFTNSGMYWVKQAPGQGLQYMGWINTEAGKPTYADDFKGRFVFFLETSASTAYLQINNLKNEDMATYFCARWGYISDNSYGWFDYWGQGTLVTVSS
VL: DTVLTQSPALAVSPGERVSISCRASEGVYSYMHWYQQNPGQQPKLLIYKASNLASGVPARFSGSGSGTDFTLTIDPVEADDTATYFCHQNWNDPLTFGSGTKLEIKR
notes: also called chBEW-1E3-D6
